Test results as given in patent publication US20240197828A1, “Chimeric molecule to treat sepsis and other inflammatory conditions” (THE FEINSTEIN INSTITUTES FOR MEDICAL RESEARCH, priority 2022, published 2024).

System: murine peritoneal cavity (PerC) macrophages
Assay: eCIRP-induced cytokine release in peritoneal cavity macrophages
Type: cell-based, mouse
Conditions: WT PerC macrophages, eCIRP treatment
Description: Murine peritoneal cavity (PerC) macrophages were isolated from adult, WT mice and MFG-E8“ ” mice. Briefly, mice were euthanized using CO2 asphyxiation. Peritoneal fluid and cells were isolated using peritoneal lavage by washing ice-cold Ca^+2 and Mg^+2 free Hank's Balanced Salt Solution (HBSS) with 2% fetal bovine serum (FBS, Solon, Ohio). Total PerC macrophages were isolated by centrifugation at 400 g for 10 minutes at 4° C. After centrifugation, the cell pellet was suspended in culture media containing RPMI 1640 (Invitrogen) supplemented with 25 mM HEPES, 2 mM glutamine, 10% FBS, penicillin (100 IU/mL) and streptomycin (100 IU/mL). PerC macrophages were allowed to adhere in 6-well plates for 4 hours in humidified incubator at 37 °C. […] Adhered PerC macrophages were then mechanically detached from the plate and counted. […]
The mouse macrophage cell culture supernatants were analyzed for cytokine levels using ELISA kits (BD Biosciences, CA). […] TNF-α and IL-6 levels were measured in cell supernatants by ELISA in accordance with respective manufacturers' instructions (BD Biosciences, CA). Blood was collected, centrifuged at 4,000 RPM for 10 minutes, and sera was separated and analyzed for cytokine levels using ELISA kits (BD Biosciences, CA). TNF-α and IL-6 levels in the serum were measured by ELISA in accordance with respective manufacturers' instructions.

B1: milk fat globule-epidermal growth factor—factor VIII (protein, listed as Mus musculus)
chain: MQVSRVLAALCGMLLCASGLFAASGDFCDSSLCLNGGTCLTGQDNDIYCLCPEGFTGLVCNETERGPCSPNPCYNDAKCLVTLDTQRGDIFTEYICQCPVGYSGIHCETETNYYNLDGEYMFTTAVPNTAVPTPAPTPDLSNNLASRCSTQLGMEGGAIADSQISASSVYMGFMGLQRWGPELARLYRTGIVNAWTASNYDSKPWIQVNLLRKMRVSGVMTQGASRAGRAEYLKTFKVAYSLDGRKFEFIQDESGGDKEFLGNLDNNSLKVNMFNPTLEAQYIKLYPVSCHRGCTLRFELLGCELHGCSEPLGLKNNTIPDSQMSASSSYKTWNLRAFGWYPHLGRLDNQGKINAWTAQSNSAKEWLQVDLGTQRQVTGIITQGARDFGHIQYVASYKVAHSDDGVQWTVYEEQGSSKVFQGNLDNNSHKKNIFEKPFMARYVRVLPVSWHNRITLRLELLGC
IL-6 levels in cell supernatants: reduced levels
TNFα levels in cell supernatants: reduced levels
